Assay results from article PMC3515690 (Nature structural & molecular biology, 2012).
Substitutions are numbered along the chain they refer to. Names may count otherwise. Where two headings read alike, the source gives them in different places. Each block holds one binder with its values, some of them ahead of it.

How the values were obtained:
Atg7 P283D = biological target: T1, Atg7 P283D (S. cerevisiae, UniProt P38862 1-630, P283D); assay: cross-linking
T1 sequence (looked up): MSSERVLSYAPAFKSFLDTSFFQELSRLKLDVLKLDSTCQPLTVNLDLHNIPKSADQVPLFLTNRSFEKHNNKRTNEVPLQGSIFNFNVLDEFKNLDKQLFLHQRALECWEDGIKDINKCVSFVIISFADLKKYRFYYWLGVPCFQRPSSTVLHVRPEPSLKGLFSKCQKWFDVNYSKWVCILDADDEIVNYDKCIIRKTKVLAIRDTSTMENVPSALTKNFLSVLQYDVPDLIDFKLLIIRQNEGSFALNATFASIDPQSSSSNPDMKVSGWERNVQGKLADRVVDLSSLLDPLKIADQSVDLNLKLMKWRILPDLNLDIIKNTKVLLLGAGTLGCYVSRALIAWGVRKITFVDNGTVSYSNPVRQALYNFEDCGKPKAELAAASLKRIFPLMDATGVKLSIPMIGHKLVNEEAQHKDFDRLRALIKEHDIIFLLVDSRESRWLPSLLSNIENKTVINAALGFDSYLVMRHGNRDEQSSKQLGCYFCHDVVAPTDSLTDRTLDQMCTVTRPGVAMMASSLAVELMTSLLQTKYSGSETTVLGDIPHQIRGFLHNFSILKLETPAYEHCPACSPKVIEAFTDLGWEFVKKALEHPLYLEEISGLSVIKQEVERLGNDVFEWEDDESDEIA

[1] = biological target: T2, Atg7 with residues 290–294 deleted (S. cerevisiae, UniProt P38862 1-630, deletion of residues 290–294); assay: cross-linking
T2 sequence (looked up): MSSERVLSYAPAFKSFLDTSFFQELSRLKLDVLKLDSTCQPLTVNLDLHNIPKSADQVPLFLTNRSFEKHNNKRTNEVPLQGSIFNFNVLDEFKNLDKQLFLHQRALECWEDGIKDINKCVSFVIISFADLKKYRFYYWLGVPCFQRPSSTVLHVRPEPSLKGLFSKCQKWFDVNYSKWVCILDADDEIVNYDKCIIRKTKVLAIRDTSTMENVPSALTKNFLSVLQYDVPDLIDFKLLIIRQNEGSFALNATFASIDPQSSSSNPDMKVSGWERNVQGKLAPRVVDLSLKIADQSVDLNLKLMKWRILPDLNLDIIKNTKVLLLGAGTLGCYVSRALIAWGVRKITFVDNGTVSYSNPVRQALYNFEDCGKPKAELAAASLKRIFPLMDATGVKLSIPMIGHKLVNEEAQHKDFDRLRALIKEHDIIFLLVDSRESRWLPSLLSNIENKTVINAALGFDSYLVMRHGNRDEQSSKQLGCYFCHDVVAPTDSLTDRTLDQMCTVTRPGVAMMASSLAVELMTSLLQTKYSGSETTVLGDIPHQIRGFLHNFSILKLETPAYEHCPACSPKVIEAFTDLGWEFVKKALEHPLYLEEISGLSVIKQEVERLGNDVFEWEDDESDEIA

[2] = biological target: T3, Atg7 with a Gly-Gly-Ser-Gly insertion after Leu291 (S. cerevisiae, UniProt P38862 1-630, Gly-Gly-Ser-Gly insertion after Atg7’s Leu291); assay: cross-linking
T3 sequence (looked up): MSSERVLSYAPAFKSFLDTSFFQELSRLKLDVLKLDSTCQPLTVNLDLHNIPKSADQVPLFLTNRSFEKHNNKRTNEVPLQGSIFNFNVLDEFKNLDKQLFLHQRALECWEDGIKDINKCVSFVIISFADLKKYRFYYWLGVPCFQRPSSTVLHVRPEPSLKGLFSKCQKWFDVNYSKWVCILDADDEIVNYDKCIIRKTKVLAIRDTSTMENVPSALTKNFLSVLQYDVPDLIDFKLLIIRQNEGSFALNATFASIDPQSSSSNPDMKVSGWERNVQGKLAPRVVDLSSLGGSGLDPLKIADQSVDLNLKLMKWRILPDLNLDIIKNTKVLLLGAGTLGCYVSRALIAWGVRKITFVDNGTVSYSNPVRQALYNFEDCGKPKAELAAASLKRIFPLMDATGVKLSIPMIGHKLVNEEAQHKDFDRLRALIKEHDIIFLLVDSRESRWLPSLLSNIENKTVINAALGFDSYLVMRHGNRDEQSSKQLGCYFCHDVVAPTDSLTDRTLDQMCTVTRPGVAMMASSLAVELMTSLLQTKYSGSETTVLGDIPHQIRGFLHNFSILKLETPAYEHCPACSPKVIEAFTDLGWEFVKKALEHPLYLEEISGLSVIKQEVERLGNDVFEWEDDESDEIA

crystal structure [3] = biological target: the molecule itself; assay: crystal structure
crystal structure [4] = biological target: the molecule itself; assay: crystal structure; remark: listed apart in the source

binding result (Atg7 P283D): binds
binding result [1]: binds
binding result [2]: binds
B1: Atg10 (Cys133only, with C26A and C137A) (enzyme, S. cerevisiae, UniProt Q07879 1-167, looked up)
chain: MIPYQEWHSQLQSLYDSQIFHNWALAQDVHLNDEKDGLLLRLIPTRQLQKNTERIENKLLNHIELYLTYSKVYNEPLLLLRIWEEKSIDGIPMTKLMLPTDIESLLDVQGKFQLGLDTIINLEGSVWYSFHPCDTSAIVGDQAEFMSTYLRRWVSIFIFSWLGYEDS
modifications: Cys133 reacted with bismaleimidoethane (BMOE)

B2: Atg7 (residues 1–613) (enzyme, S. cerevisiae, UniProt P38862 1-613, looked up)
chain: MSSERVLSYAPAFKSFLDTSFFQELSRLKLDVLKLDSTCQPLTVNLDLHNIPKSADQVPLFLTNRSFEKHNNKRTNEVPLQGSIFNFNVLDEFKNLDKQLFLHQRALECWEDGIKDINKCVSFVIISFADLKKYRFYYWLGVPCFQRPSSTVLHVRPEPSLKGLFSKCQKWFDVNYSKWVCILDADDEIVNYDKCIIRKTKVLAIRDTSTMENVPSALTKNFLSVLQYDVPDLIDFKLLIIRQNEGSFALNATFASIDPQSSSSNPDMKVSGWERNVQGKLAPRVVDLSSLLDPLKIADQSVDLNLKLMKWRILPDLNLDIIKNTKVLLLGAGTLGCYVSRALIAWGVRKITFVDNGTVSYSNPVRQALYNFEDCGKPKAELAAASLKRIFPLMDATGVKLSIPMIGHKLVNEEAQHKDFDRLRALIKEHDIIFLLVDSRESRWLPSLLSNIENKTVINAALGFDSYLVMRHGNRDEQSSKQLGCYFCHDVVAPTDSLTDRTLDQMCTVTRPGVAMMASSLAVELMTSLLQTKYSGSETTVLGDIPHQIRGFLHNFSILKLETPAYEHCPACSPKVIEAFTDLGWEFVKKALEHPLYLEEISGLSVIKQEVER
modifications: catalytic Cys507 linked through bismaleimidoethane (BMOE) to Atg3 Cys234
stoichiometry N (crystal structure [3]): 2

B3: Atg7(1–613 C39S C195S C375A) (enzyme, S. cerevisiae, UniProt P38862 1-613, looked up)
chain: B2 chain with C39S, C195S, C375A
modifications: catalytic Cys507 linked through bismaleimidoethane (BMOE) to Atg10 Cys133
stoichiometry N (crystal structure [4]): 2
